Data reported in patent US20160208018A1 (JUNO THERAPEUTICS, published 2016).

B1: Clone 83 scFv (scFv)
scFv: QVQLVQSGAEVKKPGASVKVSCKASGYTFTSYYMHWVRQAPGQGLEWMGIINPSGGSTSYAQKFQGRVTMTRDTSTSTVYMELSSLRSEDTAVYYCARDSSYDAFDIWGQGTMVTVSSGGGGSGGGGSGGGGSAIQLTQSPSTLSASVGDRVTITCQASQDISNYLNWYQQKPGKAPKLLINDASYLETGVPSRFSGSGSGTDFTLTISSLQPEDIATYYCQQYESLPYTFGQGTKLEIK
B2: CAR containing the rabbit anti-ROR1 (R12) scFv (VH-VL) (other)
chain: QEQLVESGGRLVTPGGSLTLSCKASGFDFSAYYMSWVRQAPGKGLEWIATIYPSSGKTYYATWVNGRFTISSDNAQNTVDLQMNSLTAADRATYFCARDSYADDGALFNIWGPGTLVTISSGGGGSGGGGSGGGGSELVLTQSPSVSAALGSPAKITCTLSSAHKTDTIDWYQQLQGEAPRYLMQVQSDGSYTKRPGVPDRFSGSSSGADRYLIIPSVQADDEADYYCGADYIGGYVFGGGTQLTVTG
notes: Control chimeric antigen receptor expressed on primary human CD8+ T cells; tEGFR marker is split off by T2A; also called R12 scFv CAR; not shown: Ig-derived hinge only spacer, human CD28-derived transmembrane domain, human 4-1BB-derived intracellular signaling domai

What was measured:
[1] = target: T1, Human ROR1 (receptor tyrosine kinase-like orphan receptor 1) (human, UniProt Q01973 30-937); test: flow cytometry on ROR1-expressing K562 and CHOK1 cells, mean (n = 2)
T1 construct: also called hROR1; K562/ROR1
T1 sequence (Q01973 30-937): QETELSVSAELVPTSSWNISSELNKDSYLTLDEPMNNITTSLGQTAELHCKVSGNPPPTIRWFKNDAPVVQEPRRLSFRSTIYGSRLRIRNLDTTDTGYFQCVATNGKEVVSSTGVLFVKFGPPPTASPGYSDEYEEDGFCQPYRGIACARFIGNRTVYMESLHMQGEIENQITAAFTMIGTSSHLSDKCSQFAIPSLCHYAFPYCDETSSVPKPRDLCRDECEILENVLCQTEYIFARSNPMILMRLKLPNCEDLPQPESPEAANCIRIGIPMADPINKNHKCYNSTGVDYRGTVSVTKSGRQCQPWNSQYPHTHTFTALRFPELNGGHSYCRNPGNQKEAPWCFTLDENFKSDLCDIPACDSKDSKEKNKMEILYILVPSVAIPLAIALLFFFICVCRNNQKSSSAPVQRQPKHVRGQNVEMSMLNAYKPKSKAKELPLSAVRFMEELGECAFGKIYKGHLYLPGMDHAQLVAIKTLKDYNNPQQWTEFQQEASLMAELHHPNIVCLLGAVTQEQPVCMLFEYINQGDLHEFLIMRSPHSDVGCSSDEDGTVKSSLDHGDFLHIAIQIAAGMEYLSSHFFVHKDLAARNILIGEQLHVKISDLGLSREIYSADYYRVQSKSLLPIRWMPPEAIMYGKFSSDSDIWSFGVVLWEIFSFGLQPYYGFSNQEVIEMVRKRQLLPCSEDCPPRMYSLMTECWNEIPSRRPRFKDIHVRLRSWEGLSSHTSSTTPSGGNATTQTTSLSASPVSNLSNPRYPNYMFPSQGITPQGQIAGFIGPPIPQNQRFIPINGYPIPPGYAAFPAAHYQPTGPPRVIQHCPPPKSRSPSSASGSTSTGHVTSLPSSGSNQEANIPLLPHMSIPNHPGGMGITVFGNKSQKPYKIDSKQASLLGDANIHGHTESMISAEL

[2] = target: T1, Human ROR1 (receptor tyrosine …); test: flow cytometry competition, competitor R12 scFv on ROR1-expressing cells, mean (n = 3)
Protocol: Assays also were performed to assess competition of the clones with the reference antibody (R12 scFv), for binding to ROR1-expressing cells. VH clones were titrated against 2 nM Myc-R12 on ROR1/K562 cells and competition assessed with an anti-Myc-Alexa647 secondary antibody, and the half maximal inhibitory concentration (IC₅₀) determined for respective clones.
(§1) Assays also were performed to assess competition (measured as half maximal inhibitory concentration (IC₅₀)) of the clones with the R12 scFv reference antibody for binding to ROR1-expressing cells, as described in Example 1. Percent (%) max ROR1 and % max competition, as compared to the R12 scFv reference antibody, were determined as described in Example 1.

[3] = target: T1, Human ROR1 (receptor tyrosine …); test: flow cytometry on ROR1-expressing cells; predicted plateau relative to R12 scFv = 100%
Protocol: (§2) Additionally, percent (%) maximum (max) binding to ROR1-expressing cells and % max competition with the reference antibody (R12 scFv) were calculated. Percent max binding and competition values were calculated based on predicted plateaus (measured by Prism® using four parameter non-linear regression), relative to values for R12 scFv binding and inhibition, respectively, assigned as 100% in each study.
as §1

[4] = target: T1, Human ROR1 (receptor tyrosine …); test: competition with R12 scFv on ROR1-expressing cells; predicted plateau relative to R12 scFv = 100%
Protocol: as §2, §1

Mouse ROR1 = target: T2, Mouse ROR1 (mouse, UniProt Q9Z139 30-937); test: inferred from IFN-gamma release of CAR-expressing CD8+ T cells co-cultured with K562/mouse ROR1 cells
T2 construct: also called mROR1; K562/mouse ROR1
T2 sequence (Q9Z139 30-937): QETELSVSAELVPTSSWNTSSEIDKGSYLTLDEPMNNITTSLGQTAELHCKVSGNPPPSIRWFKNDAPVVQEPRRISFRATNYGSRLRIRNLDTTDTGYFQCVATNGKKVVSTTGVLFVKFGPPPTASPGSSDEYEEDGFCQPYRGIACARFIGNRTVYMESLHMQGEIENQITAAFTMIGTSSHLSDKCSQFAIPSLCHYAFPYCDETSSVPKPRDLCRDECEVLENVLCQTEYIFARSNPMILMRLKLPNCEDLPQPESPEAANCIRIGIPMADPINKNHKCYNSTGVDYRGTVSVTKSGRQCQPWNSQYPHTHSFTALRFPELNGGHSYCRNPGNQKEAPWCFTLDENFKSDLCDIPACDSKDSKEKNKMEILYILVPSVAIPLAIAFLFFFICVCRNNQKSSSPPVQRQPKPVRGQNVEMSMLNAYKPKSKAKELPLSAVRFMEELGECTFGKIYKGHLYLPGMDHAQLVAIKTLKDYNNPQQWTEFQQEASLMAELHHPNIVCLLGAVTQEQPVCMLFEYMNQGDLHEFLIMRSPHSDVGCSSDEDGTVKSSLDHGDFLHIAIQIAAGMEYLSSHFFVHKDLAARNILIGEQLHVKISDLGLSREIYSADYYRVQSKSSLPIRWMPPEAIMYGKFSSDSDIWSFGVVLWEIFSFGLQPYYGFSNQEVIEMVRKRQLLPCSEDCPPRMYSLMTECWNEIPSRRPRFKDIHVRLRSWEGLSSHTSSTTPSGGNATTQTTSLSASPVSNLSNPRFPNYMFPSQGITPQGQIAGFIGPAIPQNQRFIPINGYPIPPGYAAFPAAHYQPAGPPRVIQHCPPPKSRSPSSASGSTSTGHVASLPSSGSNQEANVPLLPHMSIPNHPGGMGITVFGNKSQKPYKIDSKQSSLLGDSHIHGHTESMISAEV
Protocol: Cytokine release was assessed following incubation of the CAR-expressing cells with either K562/human ROR1 (hROR1) or K562/mouse ROR1 (mROR1) antigen-expressing cells. Transduced CD8+ T cells were co-cultured with antigen-expressing cells at a single effector to target (E:T). The co-cultured cells were incubated for about 24 hours, and then supernatants were collected for measurement of IFN-γ using a cytokine immunoassay.

| Binder | EC50 [1] [nM] | IC50 [2] [nM] | % Max Binding [3] [%] | % Max Competition [4] [%] | binding result (Mouse ROR1) |
| --- | --- | --- | --- | --- | --- |
| B1 | 2.5 | 11.1 | 70 | 103 |  |
| B2 |  |  |  |  | no binding |
